{"source": "patent US20240117385A1", "about": "“ENZYMES OF LUCIFERIN BIOSYNTHESIS AND USE THEREOF” (LIGHT BIO, INC., priority 2018, published 2024)", "molecules": {"B1": {"name": "SEQ ID NO: 137: plant type III polyketide synthase (PKS) (protein, listed as Piper methysticum)", "chain": "MSKTVEDRAAQRAKGPATVLAIGTATPANVVYQTDYPDYYFRVTKSEHMTKLKNKFQRMCDRSTIKKRYMVLTEELLEKNLSLCTYMEPSLDARQDILVPEVPKLGKEAADEAIAEWGRPKSEITHLIFCTTCGVDMPGADYQLTKLLGLRSSVRRTMLYQQGCFGGGTVLRLAKDLAENNAGARVLVVCSEITTAVNFRGPSDTHLDLLVGLALFGDGAAAVIVGADPDPTLERPLFQIVSGAQTILPDSEGAINGHLREVGLTIRLLKDVPGLVSMNIEKCLMEAFAPMGIHDWNSIFWIAHPGGPTILDQVEAKLGLKEEKLKSTRAVLREYGNMSSACVLFILDEVRKRSMEEGKTTTGEGFDWGVLFGFGPGFTVETVVLHSMPIPKADEGR"}, "B2": {"name": "SEQ ID NO: 127: plant type III polyketide synthase (PKS) (protein, listed as Physcomitrella patens)", "chain": "MSKTVEDRAAQRAKGPATVLAIGTATPANVVYQTDYPDYYFRVTKSEHMTKLKNKFQRMCDRSTIKKRYMVLTEELLEKNLSLCTYMEPSLDARQDILVPEVPKLGKEAADEAIAEWGRPKSEITHLIFCTTCGVDMPGADYQLTKLLGLRSSVRRTMLYQQGCFGGGTVLRLAKDLAENNAGARVLVVCSEITTAVNFRGPSDTHLDLLVGLALFGDGAAAVIVGADPDPTLERPLFQIVSGAQTILPDSEGAINGHLREVGLTIRLLKDVPGLVSMNIEKCLMEAFAPMGIHDWNSIFWIAHPGGPTILDQVEAKLGLKEEKLKSTRAVLREYGNMSSACVLFILDEVRKRSMEEGKTTTGEGFDWGVLFGFGPGFTVETVVLHSMPIPKADEGR"}, "B3": {"name": "SEQ ID NO: 123: type III polyketide synthase from Arabidopsis thaliana (protein, listed as Arabidopsis thaliana)", "chain": "MSNSRMNGVEKLSSKSTRRVANAGKATLLALGKAFPSQVVPQENLVEGFLRDTKCDDAFIKEKLEHLCKTTTVKTRYTVLTREILAKYPELTTEGSPTIKQRLEIANEAVVEMALEASLGCIKEWGRPVEDITHIVYVSSSEIRLPGGDLYLSAKLGLRNDVNRVMLYFLGCYGGVTGLRVAKDIAENNPGSRVLLTTSETTILGFRPPNKARPYDLVGAALFGDGAAAVIIGADPRECEAPFMELHYAVQQFLPGTQNVIEGRLTEEGINFKLGRDLPQKIEENIEEFCKKLMGKAGDESMEFNDMFWAVHPGGPAILNRLETKLKLEKEKLESSRRALVDYGNVSSNTILYVMEYMRDELKKKGDAAQEWGLGLAFGPGITFEGLLIRSLTSS"}, "B4": {"name": "SEQ ID NO: 129: plant type III polyketide synthase (PKS) (protein, listed as Polygonum cuspidatum)", "chain": "MAPAVADIRKAQRAEGPATVLAIGTATPPNCVYQKDYPDYYFRVTNSDHMTDLKEKFRRMCEKSNIEKRYMYLTEEILKENPNMCSYMQTSSLDTRQDMVVSEVPRLGKEAAQKAIKEWGQPKSKITHVIMCTTSGVDMPGADYQLTKLLGLHPSVKRFMMYQQGCFAGGTVLRLAKDLAENNRGARVLVVCSEITAICFRGPTDTHPDSMVGQALFGDGSGAVIIGADPDLSIEKPIFELVWTAQTILPDSEGAIDGHLREVGLTFHLLKDVPGLISKNIEKNLTEAFSPLNVSDWNSLFWIAHPGGPAILDQVETKLGLKEEKLKATRQVLNDYGNMSSACVLFIMDEMRKKSVENGHATTGEGLEWGVLFGFGPGLTVETVVLHSVPVAN"}, "B5": {"name": "SEQ ID NO: 121: type III polyketide synthase PKS2 from Aquilaria sinensis (protein, listed as Aquilaria sinensis)", "chain": "MSQAIADNAYRHHLKRAPTPGKATVLALGKAFPKQVIPQENLVEGYIRDTKCEDVSIKEKLERLCKTTTVKTRYTVMSKEILDNYPELVTEGSPTIRQRLEIANPAVVEMAKEASLACIKQWGRPAGDITHIVYVSSSEIRLPGGDLYLANELGLKNDINRIMLYFLGCYGGVTGLRVAKDIAENNPGSRILLTTSETTILGFRPPNKSRPYDLVGAALFGDGAAAVIIGANPEIGRESPFMELNFALQQFLPGTHGVIDGRLSEEGINFKLGRDLPQKIEDNIEDFCRKLMIKADGDLKEFNELFWAVHPGGPAILNRLESILDLKNGKLECSRRALMDYGNVSSNTIFYVMEYMREELKREGSEEWGLALAFGPGITFEGILLRSL"}, "B6": {"name": "SEQ ID NO: 125: type III polyketide synthase from Hydrangea macrophylla (protein, listed as Hydrangea macrophylla)", "chain": "MATKSVAVEEMCKAQKAGGPATILAIGTAVPSNCYYQSEYPDFYFRVTKSDHLTDLKSKFKRMCERSSIKKRYMHLTEEILEENPNMCTFAAPSIDGRQDIVVKEIPKLAKEAASKAIKEWGQPKSNITHLVFCTTSGVDMPGCDYQLTRLLGLRPSIKRLMMYQQGCHAGGTGLRLAKDLAENNKGARVLVVCSEMTVINFRGPSEAHMDSLVGQSLFGDGASAVIVGSDPDLSTEHPLYQIMSASQIIVADSEGAIDGHLRQEGLTFHLRKDVPSLVSDNIENTLVEAFTPILMDSIDSIIDWNSIFWIAHPGGPAILNQVQAKVGLKEEKLRVSRHILSEYGNMSSACVFFIMDEMRKRSMEEGKGTTGEGLEWGVLFGFGPGFTVETIVLHSVPI"}, "B7": {"name": "SEQ ID NO: 139: plant type III polyketide synthase (PKS) (protein, listed as Piper methysticum)", "chain": "MSKMVEEHWAAQRARGPATVLAIGTANPPNVLYQADYPDFYFRVTKSEHMTQLKEKFKRICDKSAIRKRHLHLTEELLEKNPNICAHMAPSLDARQDIAVVEVPKLAKEAATKAIKEWGRPKSDITHLIFCTTCGVDMPGADYQLTTLLGLRPTVRRTMLYQQGCFAGGTVLRHAKDFAENNRGARVLAVCSEFTVMNFSGPSEAHLDSMVGMALFGDGASAVIVGADPDFAIERPLFQLVSTTQTIVPDSDGAIKCHLKEVGLTLHLVKNVPDLISNNMDKILEEAFAPLGIRDWNSIFWTAHPGGAAILDQLEAKLGLNKEKLKTTRTVLREYGNMSSACVCFVLDEMRRSSLEEGKTTSGEGLEWGILLGFGPGLTVETVVLRSVPISTAN"}, "B8": {"name": "SEQ ID NO: 131: plant type III polyketide synthase (PKS) (protein)", "chain": "MATEEMKKLATVMAIGTANPPNCYYQADFPDFYFRVTNSDHLINLKQKFKRLCENSRIEKRYLHVTEEILKENPNIAAYEATSLNVRHKMQVKGVAELGKEAALKAIKEWGQPKSKITHLIVCCSAGVDMPGADYQLTKLLDLDPSVKRFMFYHLGCYAGGTVLRLAKDIAENNKGARVLIVCSEMTTTCFRGPSETHLDSMIGQAILGDGAAAVIVGADPDLTVERPIFELVSTAQTIVPESHGAIEGHLLESGLSFHLYKTVPTLISNNIKTCLSDAFTPLNISDWNSLFWIAHPGGPAILDQVTAKVGLEKEKLKVTRQVLKDYGNMSSATVFFIMDEMRKKSLENGQATTGEGLEWGVLFGFGPGITVETVVLRSVPVIS", "modifications": "Amino acid sequence of the mutant L132S PKS from Rheum palmatum, optimized for expression in Nicotiana benthamiana"}, "B9": {"name": "SEQ ID NO: 119: type III polyketide synthase PKS1 from Aquilaria sinensis (protein, listed as Aquilaria sinensis)", "chain": "MGSQDVAGGALKGVNPGKATILALGKAFPYQLVMQEFLVDGYFKNTSCKDQELKQKLARLCKTTTVKTRYVVMSEEILNKYPELAVEGIPTLKQRLDIGNEALTEMAIEASQACIKKWGRPASEITHLVYVSSSEARLPGGDLYLAQGLGLSPRTKRVVLYFMGCSGGVAGLRVAKDIAENNPGSRVLLATSETTIVGFKPPSAHRPYDLVGVALFGDGAGAMVIGSDPLPGTESPLFELHTAIQNFLPNTEKTIDGRLTEEGISFKLARELPQIVEDHIEGFCGQLTGVIGLSHKQYNKMFWAVHPGGPAILNRVEKRLDLHPNKLDASRRALEDYGNASSNSIVYVLDYMIEETLKMKTESLEPSEWGLILAFGPGVTFEGILARNLAV"}, "B10": {"name": "SEQ ID NO: 133: plant type III polyketide synthase (PKS) (protein, listed as Rheum tataricum)", "chain": "MAPEESRHAETAVNRAATVLAIGTANPPNCYYQADFPDFYFRATNSDHLTHLKQKFKRICEKSMIEKRYLHLTEEILKENPNIASFEAPSLDVRHNIQVKEVVLLGKEAALKAINEWGQPKSKITRLIVCCIAGVDMPGADYQLTKLLGLQLSVKRFMFYHLGCYAGGTVLRLAKDIAENNKEARVLIVRSEMTPICFRGPSETHIDSMVGQAIFGDGAAAVIVGANPDLSIERPIFELISTSQTIIPESDGAIEGHLLEVGLSFQLYQTVPSLISNCIETCLSKAFTPLNISDWNSLFWIAHPGGRAILDDIEATVGLKKEKLKATRQVLNDYGNMSSACVFFIMDEMRKKSLANGQVTTGEGLKWGVLFGFGPGVTVETVVLSSVPLIT"}}, "tested_on": "Pichia pastoris GS115 yeast cells expressing luciferase, hispidin hydroxylase and coumarate-CoA ligase 1", "test": "Screening of PKS for hispidin-synthase activity in yeast colonies sprayed with caffeic acid", "type": "cell-based", "conditions": "colonies sprayed with caffeic acid solution", "text": "The selected nucleotide sequences for expression in Pichia pastoris yeast cells and Nicotiana benthamiana plant cells were optimized. The resulting nucleic acids were obtained synthetically and cloned into pGAPZ vector and used for verifying ability of the expressed proteins to synthesize hispidin.\nFor this purpose, in genome of Pichia pastoris GS115 yeast line, constitutively expressing Neonothopanus nambi luciferase and hispidin hydroxylase, obtained according to Example 1, there was additionally introduced pGAPZ plasmid, comprising gene of\nArabidopsis thaliana coumarate-CoA ligase 1 (which nucleotide and amino acid sequence are shown in SEQ ID NOs: 140, 141), also obtained by oligonucleotide synthesis. The plasmid was linearized at restriction site AvrII and used for transformation into Pichia pastoris GS115 cells.\nThe obtained yeast cells, constitutively expressing Neonothopanus nambi luciferase and hispidin hydroxylase and Arabidopsis thaliana coumarate-CoA ligase 1, were […] by plasmids comprising coding PKS sequences, and dispersed in Petri dishes with RDB medium, comprising 1 M of sorbitol, 2% (weight/volume) of glucose, 1.34% (weight/volume) of yeast nitrogen base (YNB), 0.005% (weight/volume) of amino acids mixture, 0.00004% (weight/volume) of biotin and 2% (weight/volume) of agar. To identify enzymes having hispidin-synthase activity, the obtained colonies were sprayed with caffeic acid solution, detecting hispidin-synthase presence in cells by occurrence of luminescence. Luminescence emitted by colonies was detected by means of IVIS Spectrum CT (Perkin Elmer, USA). Yeast line constitutively expressing luciferase, hispidin hydroxylase and coumarate-CoA ligase 1, and also wild yeast cells were used as negative control. […] Amino acid sequences coded by then are shown in SEQ ID NOs: 119, 121, 123, 125, 127, 129, 131, 133, 135, 137, 139 respectively.", "data": [{"molecule": "B1", "values": [{"measurement": "hispidin-synthase activity", "result": "had hispidin-synthase activity"}]}, {"molecule": "B2", "values": [{"measurement": "hispidin-synthase activity", "result": "had hispidin-synthase activity"}]}, {"molecule": "B3", "values": [{"measurement": "hispidin-synthase activity", "result": "had hispidin-synthase activity"}, {"measurement": "hispidin-synthase activity, comparison among PKS", "result": "highest activity"}]}, {"molecule": "B4", "values": [{"measurement": "hispidin-synthase activity", "result": "had hispidin-synthase activity"}]}, {"molecule": "B5", "values": [{"measurement": "hispidin-synthase activity", "result": "had hispidin-synthase activity"}, {"measurement": "hispidin-synthase activity, comparison among PKS", "result": "highest activity"}]}, {"molecule": "B6", "values": [{"measurement": "hispidin-synthase activity", "result": "had hispidin-synthase activity"}, {"measurement": "hispidin-synthase activity, comparison among PKS", "result": "highest activity"}]}, {"molecule": "B7", "values": [{"measurement": "hispidin-synthase activity", "result": "had hispidin-synthase activity"}]}, {"molecule": "B8", "values": [{"measurement": "hispidin-synthase activity", "result": "had hispidin-synthase activity"}]}, {"molecule": "B9", "values": [{"measurement": "hispidin-synthase activity", "result": "had hispidin-synthase activity"}, {"measurement": "hispidin-synthase activity, comparison among PKS", "result": "highest activity"}]}, {"molecule": "B10", "values": [{"measurement": "hispidin-synthase activity", "result": "had hispidin-synthase activity"}]}]}
